# Measured values taken from patent US20110251266, “APTAMER FOR NGF AND USE THEREOF” (Shionogi & Co., Ltd., published 2011).
# B1: SEQ55 aptamer (ssRNA)
# RNA: GGGAGAACUUCGACCAGAAGUUUGAAAGAAACCCAAAAAUGAAUGCAACUAUGUGCGCAUACAUGGACCUCA
# modifications: 2'-F all pyrimidines
# B2: SEQ45 aptamer (ssRNA)
# RNA: GGGAGAACUUCGACCAGAAGAGAAUGAAACUCCCAAAUCAAGGACAAUGAUAUGUGCGCAUACAUGGAUCCUCA
# modifications: 2'-F all pyrimidines
# B3: SEQ47 aptamer (ssRNA)
# RNA: GGGAGAACUUCGACCAGAAGAAGUUUGAAAAGAACCCAAAAUGAGCAAAAUAUGUGCGCAUACAUGGAUCCUCA
# modifications: 2'-F all pyrimidines
# B4: SEQ63 aptamer (ssRNA)
# RNA: GGGAGAACUUCGACCAGAAGAUUUGAAAGAAACCCAAACUAAGCACAAAAUAUGUGCGCAUACAUGGAUCCUCA
# modifications: 2'-F all pyrimidines
# B5: SEQ48 aptamer (ssRNA)
# RNA: GGGAGAACUUCGACCAGAAGUUUGAAAAGAACCCGAAAAACGCAUAAUAAUAUGUGCGCAUACAUGGAUCCUCA
# modifications: 2'-F all pyrimidines
# B6: SEQ66 aptamer (ssRNA)
# RNA: GGGAGAACUUCGACCAGAAGUUUGAAAAAAACCCAAAGCAAGCACAACAUUAUGUGCGCAUACAUGGAUCCUCA
# modifications: 2'-F all pyrimidines
# B7: SEQ50 aptamer (ssRNA)
# RNA: GGGAGAACUUCGACCAGAAGUGAAAAAACCUCCCAAUACAAACACAAAAAUAUGUGCGCAUACAUGGAUCCUCA
# modifications: 2'-F all pyrimidines
# B8: SEQ46 aptamer (ssRNA)
# RNA: GGGAGAACUUCGACCAGAAGUUUGAAACAAACCCAAAGUUACGCACAAAAUAUGUGCGCAUACAUGGAUCCUCA
# modifications: 2'-F all pyrimidines
# B9: SEQ43 aptamer (ssRNA)
# RNA: GGGAGAACUUCGACCAGAAGCUUGAAAAAACCCCAAUAUGAGAAUCAUAUAUGUGCGCAUACAUGGAUCCUCA
# modifications: 2'-F all pyrimidines
# B10: SEQ53 aptamer (ssRNA)
# RNA: GGGAGAACUUCGACCAGAAGUUUGAAAGGAACCCAAAAACACAAAAUGUCUAUGUGCGCAUACAUGGAUCCUCA
# modifications: 2'-F all pyrimidines
# B11: SEQ59 aptamer (ssRNA)
# RNA: GGGAGAACUUCGACCAGAAGUCGAAACGUUUGAAAAAAACCCAAGGAGGAUAUGUGCGCAUACAUGGAUCCUCA
# modifications: 2'-F all pyrimidines
# B12: SEQ56 aptamer (ssRNA)
# RNA: GGGAGAACUUCGACCAGAAGUGAAAGAAACUCCCAACACAAAUGCACAACUAUGUGCGCAUACAUGGAUCCUCA
# modifications: 2'-F all pyrimidines
# B13: SEQ57 aptamer (ssRNA)
# RNA: GGGAGAACUUCGACCAGAAGUUUGAAAAAAACCCAAACACCGAAGCACAAAUAUGUGCGCAUACAUGGAUCCUCA
# modifications: 2'-F pyrimidines
# B14: SEQ38 aptamer (ssRNA)
# RNA: GGGAGAACUUCGACCAGAAGAGAAUGAAACUCCACAAAGUACAUAAAACAUAUGUGCGCAUACAUGGAUCCUCA
# modifications: 2'-F pyrimidines
# B15: SEQ51 aptamer (ssRNA)
# RNA: GGGAGAACUUCGACCAGAAGUUUGAAAGAAACCCAAAAAAACAACAUAUGAACUAUGUGCGCAUACAUGGAUCCUCA
# modifications: 2'-F pyrimidines
# B16: SEQ30(6) (ssRNA)
# RNA: GGGAUAAAAAUAGAGUUUGAUAAACACCUGUAUUAAAACCC
# modifications: 2'-F pyrimidines and some purines, 2'-OMe at most purines including g1-g3 as printed in p174, 5' and 3' idT
# B17: SEQ30(5) (ssRNA)
# RNA: GGGAUAAAAAUAGAGUUUGAUAAACACCUGUAUUAAAACCC
# modifications: 2'-F pyrimidines and some purines, 2'-OMe at many purines as printed in p174, 5' and 3' idT
# B18: SEQ52 aptamer (ssRNA)
# RNA: GGGAGAACUUCGACCAGAAGUUUGAAAGAAACCCAAAUAUACAAAACACUAUGUGCGCAUACAUGGAUCCUCA
# modifications: 2'-F pyrimidines
# B19: SEQ54 aptamer (ssRNA)
# RNA: GGGAGAACUUCGACCAGAAGUCGAAAGUGAAAGAAACUCCAACGAAAGCAUAUGUGCGCAUACAUGGAUCCUCA
# modifications: 2'-F pyrimidines
# B20: SEQ83 aptamer (ssRNA)
# RNA: GGGAGAACUUCGACCAGAAGUUGAAGCUUGAAAAAAACCCAGGAUUAAACAGACAGUAUGUGCGCAUACAUGGAUCCUC
# modifications: 2'-F pyrimidines
# B21: SEQ12 aptamer (ssRNA)
# RNA: GGGAAGCCUGUGGAGCUGCGAAACAGUGAAACAAACCACAGACUGAGAAAGCAGUAACAGCAUUGUCACCAACAACUGG
# modifications: 2'-F pyrimidines
# B22: SEQ49 aptamer (ssRNA)
# RNA: GGGAGAACUUCGACCAGAAGUGAAAGAAACUCCCAAGACGGUAACGAAAGUAUGUGCGCAUACAUGGAUCCUCA
# modifications: 2'-F pyrimidines
# B23: SEQ39 aptamer (ssRNA)
# RNA: GGGAGAACUUCGACCAGAAGUGUGAAAAGAACCCAAAUAAAACAACAAUGUAUGUGCGCAUACAUGGAUCCUCA
# modifications: 2'-F pyrimidines
# B24: SEQ6 aptamer (ssRNA)
# RNA: GGGAAGCCUGUGGAGCUGCAGGAUGAAAAAAACCCAAAAUUAAAUAAAAAAUAGACGGUGCAUUGUCACCAACAACUGG
# modifications: 2'-F pyrimidines
# B25: SEQ35(6) (ssRNA)
# RNA: GGGAAGCCUGUGGAGCUGCAGGAUGAAAAAAACCCAAA
# modifications: 2'-F pyrimidines and a23, 2'-OMe at g1 g2 a4 a5 g6 g10 g12 g13 a14 g15 g18 a20 g21 g22 a29-a32 a36-a38, 5' and 3' idT
# B26: SEQ35(1) (ssRNA)
# RNA: GGGAAGCCUGUGGAGCUGCAGGAUGAAAAAAACCCAAA
# modifications: 2'-F pyrimidines, 2'-OMe at a4 a5 g6 g10 g12 g13 a14 g15 g18 a20 g21 g22, 5' and 3' idT
# B27: SEQ35(5) (ssRNA)
# RNA: GGGAAGCCUGUGGAGCUGCAGGAUGAAAAAAACCCAAA
# modifications: 2'-F pyrimidines, 2'-OMe at g1 g2 a4 a5 g6 g10 g12 g13 a14 g15 g18 a20 g21 g22 a29-a32 a36-a38, 5' and 3' idT
# B28: SEQ64 aptamer (ssRNA)
# RNA: GGGAGAACUUCGACCAGAAGUUUGAAAGAAACCCAAAACAUUAGCACACAUAUGUGCGCAUACAUGGAUCCUCA
# modifications: 2'-F pyrimidines
# B29: SEQ37 aptamer (ssRNA)
# RNA: GGGAGAACUUCGACCAGAAGUUUGAAAGAAACCCAAAGGUGAAACAACAAUAUGUGCGCAUACAUGGAUCCUCA
# modifications: 2'-F pyrimidines
# B30: SEQ42 aptamer (ssRNA)
# RNA: GGGAGAACUUCGACCAGAAGUUUGAAAAAAACCCAAAAGAGCAGCAGAGAUAUGUGCGCAUACAUGGAUCCUCA
# modifications: 2'-F pyrimidines
# B31: SEQ5 aptamer (ssRNA)
# RNA: GGGAAGCCUGUGGAGCUGCUUAAACAAGCAAGUGAAAAAAACCACAGCAAAUGUAAAAAGCAUUGUCACCAACAACUGG
# modifications: 2'-F pyrimidines
# Molecular target: T1, beta-NGF (nerve growth factor) (Homo sapiens, UniProt P01138 P01138:122-241)
# Test: SPR; blocks NGF-TrkA and NGF-P75
# Settings: tags: R&D Systems; chain copies: 2
# Description: As directed in BIAcore Company's protocol, Protein A (21181, PIERCE) was immobilized on a CM5 sensor chip. About 1100 RU of human Trk A-Fc fused with the Fc portion of IgG (175-TK, R&D systems) was immobilized thereon. As the analyte, a mixture of NGF (0.1 μM) and each aptamer (0.33 μM) was injected after being allowed to stand for 30 minutes. […] When NGF binds stronger to a receptor than an aptamer, the aptamer may be removed and NGF may bind to the receptor. […] Using the binding amount of NGF and NGF receptor without an aptamer as 100, the binding amount of NGF and NGF receptor added with an aptamer was determined as a correction value. Here, the binding amount is the RU value at the peak top of the sensorgram of BIAcore (RU value immediately after completion of NGF injection). […] A similar experiment was performed for another receptor P75 (p75-Fc; R&D systems).
# T1 sequence (P01138 122-241, one chain of several): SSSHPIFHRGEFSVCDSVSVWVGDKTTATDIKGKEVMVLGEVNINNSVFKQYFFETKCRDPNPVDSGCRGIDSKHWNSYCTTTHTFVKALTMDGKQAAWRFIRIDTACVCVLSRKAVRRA
row,Binder,activity
1,B1,≥ 60 % inhibition
2,B2,≥ 60 % inhibition
3,B3,≥ 60 % inhibition
4,B4,≥ 60 % inhibition
5,B5,≥ 60 % inhibition
6,B6,≥ 60 % inhibition
7,B7,≥ 60 % inhibition
8,B8,≥ 60 % inhibition
9,B9,≥ 60 % inhibition
10,B10,≥ 60 % inhibition
11,B11,≥ 60 % inhibition

# Molecular target: T1, beta-NGF (nerve growth factor)
# Test: cell_activity; neurite outgrowth, Neuroscreen-1 cells
# Settings: tags: R&D Systems; chain copies: 2
# Description: (§1) The neurite outgrowth inhibitory activity of aptamer was evaluated by using Neuroscreen-1 cell, which is a subclone of PC-12 cells. 2500 Cells per well were cultured for one day in an RPMI-1640 medium containing 2.5% horse serum and 1.25% fetal bovine serum in a 96 well flat-bottom plate coated with collagen type IV. A mixed solution of NGF (final concentration 15 ng/ml or 1.1 nM) prereacted in a serum-free RPMI-1640 medium at room temperature or 37° C. for 30 min to 1 hr and an aptamer (final concentration 500-3 nM) was added. Two or three days later, the cytoplasm and nuclei were stained using Cellomics Neurite Outgrowth Kits (manufactured by Thermo Scientific), and neurite length per cell was measured by Cellomics ArrayScan VTI (manufactured by Thermo Scientific). With the neurite length per cell obtained by culturing the cell for 2 days with the addition of NGF alone as inhibitory activity 0%, and that of the cell obtained by NGF free culture as inhibitory activity 100%, the inhibitory activity of the aptamer was calculated from the neurite length per cell obtained by culturing with the addition of NGF and the aptamer in mixture. […] When the inhibitory activity was 0% or below, ‘0%’ is indicated. When it was not less than 100%, ‘100%’ is indicated. The 50% inhibitory concentration was determined from the concentrations at two, above and below points sandwiching the 50% inhibitory activity.
row,Binder,IC50
1,B1,49.9 nM
2,B2,20.2 nM
3,B3,14.6 nM
4,B4,< 10 nM
5,B5,46.4 nM
6,B6,< 10 nM
7,B12,18.8 nM
8,B7,25.4 nM
9,B8,25.4 nM
10,B9,< 10 nM
11,B10,< 10 nM
12,B11,71.5 nM

# Molecular target: T1, beta-NGF (nerve growth factor)
# Test: cell_activity; Neuroscreen-1 neurite outgrowth
# Settings: tags: R&D Systems human NGF; chain copies: 2
# Description: as §1
row,Binder,IC50
1,B13,6.4 nM
2,B14,7.3 nM
3,B15,11.9 nM
4,"GGGAUAAAAAUAGAGUUUGAUAAACACCUGUAUUAAAACCC (ssRNA, 2'-F pyrimidines) [SEQ30 aptamer]",57.6 nM
5,B16,58.9 nM
6,B17,< 100 nM
7,B18,6.7 nM
8,B19,7.6 nM
9,B20,7.1 nM
10,B21,43.4 nM
11,B22,4.6 nM
12,B23,6.3 nM
13,B24,17.7 nM
14,B25,73.5 nM
15,B26,94.7 nM
16,B27,79.8 nM
17,B28,4.8 nM
18,B29,6.6 nM
19,B30,6.6 nM
20,B31,21 nM
21,"UGUGGAGCUGCUUAAACAAGCAAGUGAAAAAAACCACA (ssRNA, 2'-F pyrimidines) [SEQ32 aptamer]",84.7 nM
